Measurements taken from patent publication US20190201496A1.

Molecular target: mβ2m
Test: SPR; pH 6

Substance	Kd
Human AFP N-His	280 nM
Mouse AFP N-His	1030 nM
